Experimental findings from US6492139 (Genentech, dated 2002) are described below.

Assay [1] addresses T1, Flag tagged rSmo (rat Smoothened with C-terminal Flag epitope tag) (rat, UniProt P97698 33-793).
T1 construct: Expressed transiently in COS-7 or 293 cells from pRK5
In words: staining of transfected cells exposed to tagged ligand.

Assay [2] has as its target T2, dSmo (Drosophila Smoothened, epitope tagged) (Drosophila, UniProt P91682 32-1036).
T2 construct: also called dro.smo
T2 sequence: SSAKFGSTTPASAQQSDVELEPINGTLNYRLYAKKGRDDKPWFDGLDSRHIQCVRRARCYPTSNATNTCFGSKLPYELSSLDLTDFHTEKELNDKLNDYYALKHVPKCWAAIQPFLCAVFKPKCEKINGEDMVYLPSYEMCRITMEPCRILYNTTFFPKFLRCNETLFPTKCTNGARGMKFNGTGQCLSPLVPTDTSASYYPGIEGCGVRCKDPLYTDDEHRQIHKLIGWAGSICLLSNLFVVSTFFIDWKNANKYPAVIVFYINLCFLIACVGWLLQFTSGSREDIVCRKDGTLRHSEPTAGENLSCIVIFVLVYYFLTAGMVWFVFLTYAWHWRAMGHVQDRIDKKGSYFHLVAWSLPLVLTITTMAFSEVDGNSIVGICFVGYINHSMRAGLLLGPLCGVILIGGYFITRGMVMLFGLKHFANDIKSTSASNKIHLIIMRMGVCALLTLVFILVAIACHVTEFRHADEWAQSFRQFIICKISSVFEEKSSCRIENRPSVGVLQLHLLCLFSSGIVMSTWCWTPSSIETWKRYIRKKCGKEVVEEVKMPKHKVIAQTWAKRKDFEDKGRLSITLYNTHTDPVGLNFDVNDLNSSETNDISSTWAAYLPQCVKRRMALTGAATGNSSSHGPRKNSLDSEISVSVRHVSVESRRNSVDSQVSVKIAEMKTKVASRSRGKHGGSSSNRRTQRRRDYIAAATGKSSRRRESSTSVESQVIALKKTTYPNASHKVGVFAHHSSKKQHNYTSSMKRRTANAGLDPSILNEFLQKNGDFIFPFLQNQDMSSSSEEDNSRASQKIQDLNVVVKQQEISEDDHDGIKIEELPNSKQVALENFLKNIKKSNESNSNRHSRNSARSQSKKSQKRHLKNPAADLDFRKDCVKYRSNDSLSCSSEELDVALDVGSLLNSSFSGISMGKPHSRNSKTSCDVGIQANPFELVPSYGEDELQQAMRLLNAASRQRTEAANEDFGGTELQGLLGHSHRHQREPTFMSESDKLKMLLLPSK
Described as above.

T1 sequence (P97698 33-793): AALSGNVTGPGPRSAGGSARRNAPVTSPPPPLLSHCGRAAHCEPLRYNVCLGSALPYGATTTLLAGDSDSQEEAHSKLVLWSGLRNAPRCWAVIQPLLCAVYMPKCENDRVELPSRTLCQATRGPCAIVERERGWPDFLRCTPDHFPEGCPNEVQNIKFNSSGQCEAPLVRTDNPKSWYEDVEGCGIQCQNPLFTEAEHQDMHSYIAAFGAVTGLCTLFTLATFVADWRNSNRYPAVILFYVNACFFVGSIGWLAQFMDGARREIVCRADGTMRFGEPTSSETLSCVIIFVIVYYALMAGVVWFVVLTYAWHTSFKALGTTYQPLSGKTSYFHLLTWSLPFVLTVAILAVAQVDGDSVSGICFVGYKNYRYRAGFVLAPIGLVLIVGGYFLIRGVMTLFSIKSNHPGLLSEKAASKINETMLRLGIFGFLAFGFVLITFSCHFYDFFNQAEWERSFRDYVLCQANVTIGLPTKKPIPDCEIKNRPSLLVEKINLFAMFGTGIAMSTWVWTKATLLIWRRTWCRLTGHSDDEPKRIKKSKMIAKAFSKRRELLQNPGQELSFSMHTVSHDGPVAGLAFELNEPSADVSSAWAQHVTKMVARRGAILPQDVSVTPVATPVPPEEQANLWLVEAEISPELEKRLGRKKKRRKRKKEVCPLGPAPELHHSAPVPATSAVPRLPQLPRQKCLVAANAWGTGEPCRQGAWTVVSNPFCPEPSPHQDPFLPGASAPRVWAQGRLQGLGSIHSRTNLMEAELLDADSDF

B1: epitope tagged Desert HH (ligand, not shown: small tags and cut ends)
chain: not shown
Turning to B1, the binding result in assay [1] and in assay [2] was “no binding” each time.
